Experimental data: US20050058645A1 (ZENYTH OPERATIONS, published 2005)

B1: soluble hIL-13Rα1 (ECD) (receptor)
chain: GGGGAAPTETQPPVTNLSVSVENLCTVIWTWNPPEGASSNCSLWYFSHFGDKQDKKIAPETRRSIEVPLNERICLQVGSQCSTNESEKPSILVEKCISPPEGDPESAVTELQCIWHNLSYMKCSWLPGRNTSPDTNYTLYYWHRSLEKIHQCENIFREGQYFGCSFDLTKVKDSSFEQHSVQIMVKDNAGKIKPSFNIVPLTSRVKPDPPHIKNLSFHNDDLYVQWENPQNFISRCLFYEVEVNNSQTETHNVFYVQEAKCENPEFERNVENTSCFMVPGVLPDTLNTVRIRVKTNKLCYEDDKLWSNWSQEMSIGKKRNST
notes: also called immobilized hIL-13Rα1 (ECD)
B2: CDR-grafted 1D9 Fab (Fab, V domains shown)
VH: EVQLVESGGGLVQPGGSLRLSCAASGFTFSGYGMSWVRQAPGKGLEWVATISGLGGYTYYPDSVKGRFTISRDNSKNTLYLQMNSLRAEDTAVYYCARRFYGDYVGAMDYWGQGTLVTVSS
VL: DIQMTQSPSSLSASVGDRVTITCRSSKSLLHSNGITYLYWYQQKPGKAPKLLIYQMSNLASGVPSRFSGSGSGTDFTLTISSLQPEDFATYYCAQNLELPFTFGQGTKVEIKR
B3: mouse IL-13 (ligand, UniProt P20109 21-131, looked up)
chain: GPVPRSVSLPLTLKELIEELSNITQDQTPLCNGSMVWSVDLAAGGFCVALDSLTNISNCNAIYRTQRILHGLCNRKAPTTVSSLPDTKIEVAHFITKLLSYTKQLFRHGPF
B4: chimeric mouse IL-13Rα1-Fc (Fc fusion, UniProt O09030 26-340, looked up)
chain: ATEVQPPVTNLSVSVENLCTIIWTWSPPEGASPNCTLRYFSHFDDQQDKKIAPETHRKEELPLDEKICLQVGSQCSANESEKPSPLVKKCISPPEGDPESAVTELKCIWHNLSYMKCSWLPGRNTSPDTHYTLYYWYSSLEKSRQCENIYREGQHIACSFKLTKVEPSFEHQNVQIMVKDNAGKIRPSCKIVSLTSYVKPDPPHIKHLLLKNGALLVQWKNPQNFRSRCLTYEVEVNNTQTDRHNILEVEEDKCQNSESDRNMEGTSCFQLPGVLADAVYTVRVRVKTNKLCFDDNKLWSDWSEAQSIGKEQNST
notes: extracellular domain; Bought (R & D Systems); Preformed disulphide-bonded dimer; also called mIL-13Rα1-Fc; chimeric mouse receptor; not shown: Fc portion of human IgG
B5: chimeric human IL-13Rα1-Fc (Fc fusion)
chain: GGGGAAPTETQPPVTNLSVSVENLCTVIWTWNPPEGASSNCSLWYFSHFGDKQDKKIAPETRRSIEVPLNERICLQVGSQCSTNESEKPSILVEKCISPPEGDPESAVTELQCIWHNLSYMKCSWLPGRNTSPDTNYTLYYWHRSLEKIHQCENIFREGQYFGCSFDLTKVKDSSFEQHSVQIMVKDNAGKIKPSFNIVPLTSRVKPDPPHIKNLSFHNDDLYVQWENPQNFISRCLFYEVEVNNSQTETHNVFYVQEAKCENPEFERNVENTSCFMVPGVLPDTLNTVRIRVKTNKLCYEDDKLWSNWSQEMSIGKKRNST
notes: Bought (R & D Systems); Extracellular domain of IL-13Rα1 fused to Fc of human IgG; Expressed as preformed disulphide-bonded dimer; also called hIL-13Rα1-Fc; chimeric human receptor; not shown: Fc portion of human IgG

How the values were obtained:
CDR-grafted 1D9 Fab [1] = molecular target: B2; test: Biosensor competition assay: soluble Fabs on immobilized hIL-13Rα1 (ECD), competed by soluble hIL-13Rα1 (ECD); ratio of the IC50 of the CDR-graft to that of the chimera
Method: (§1) FIGS. 11A and 11B are graphical representations of binding affinities of the chimeric and CDR-grafted Fab fragment. […] (B) Biosensor competition assay of soluble 1D9 chimeric or CDR-grafted Fab binding to immobilized hIL-13Rα1 (ECD) competed by soluble hIL-13Rα1 (ECD). Fold-difference in affinity is calculated from (IC₅₀/IC₅₀).

CDR-grafted 1D9 Fab [2] = molecular target: B2; test: Competition ELISA: phage displayed CDR-grafted 1D9 Fab on plate bound hIL-13Rα1-Fc (ECD) (2.5 µg/ml), competed by titrated soluble hIL-13Rα1 (ECD)
CDR-grafted 1D9 Fab [3] = molecular target: B2; test: Biosensor competition assay: soluble CDR-grafted 1D9 Fab on immobilized hIL-13Rα1 (ECD), competed by titrated soluble hIL-13Rα1 (ECD)
Method: as §1

[4] = molecular target: T1, mouse-human chimeric 1D9 Fab (human, UniProt P01857 1-103 = IgG part; P01834 1-107, limits assumed); test: Competition ELISA: phage displayed chimeric 1D9 Fab on plate bound hIL-13Rα1-Fc (ECD) (2.5 µg/ml), competed by titrated soluble hIL-13Rα1 (ECD)
[5] = molecular target: T1, mouse-human chimeric 1D9 Fab; test: Biosensor competition assay: soluble chimeric 1D9 Fab on immobilized hIL-13Rα1 (ECD), competed by titrated soluble hIL-13Rα1 (ECD)
Method: as §1

CDR-grafted 1D9 Fab [6] = molecular target: B2; test: Competition ELISA: phage displayed Fabs on plate bound hIL-13Rα1-Fc (ECD), competed by soluble hIL-13Rα1 (ECD); ratio of the IC50 of the CDR-graft to that of the chimera
soluble hIL-13Rα1 (ECD) = molecular target: B1; test: competition ELISA (phage displayed Fab) and Biacore competition (soluble Fab)
Method: as §1
The CDR-grafted Fab has similar affinity for IL-13Rα1 as the reference murine-human chimeric Fab.

[7] = molecular target: B5; test: ELISA: phage displayed Fab on plate bound hIL-13Rα1-Fc (ECD) (2.5 µg/ml), competed by soluble hIL-13Rα1 (ECD)
[8] = molecular target: B4; test: Biosensor, immobilized mouse IL-13, chimeric receptor in solution
From the text: (§2) A qualitative comparison of sensorgrams obtained in this study to data obtained previously with monomeric receptor protein, indicated a substantial improvement in binding kinetics. This improvement is attributed to a much slower off-rate for the dimeric form, compared with the monomeric form, of the receptor. To further quantify this interaction a complete dose-response analysis using both human and mouse chimeric receptor proteins and immobilized human and mouse IL-13 was undertaken.

[9] = molecular target: B5; test: as above
From the text: as §2

mouse IL-13 = molecular target: B3; test: Biosensor, immobilized IL-13
human IL-13 = human IL-13 (human, UniProt P35225 35-146, limits assumed); test: Biosensor, immobilized IL-13
[10] = molecular target: T2, IL-13 (species not stated); test: Biosensor, immobilized IL-13
T2 construct: the 100-fold comparison

T1 sequence (VH, as listed by the source limits assumed, chain 1 of 2): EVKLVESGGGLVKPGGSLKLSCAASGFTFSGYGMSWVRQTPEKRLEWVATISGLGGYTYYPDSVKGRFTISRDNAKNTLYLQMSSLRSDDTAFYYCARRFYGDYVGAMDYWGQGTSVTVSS
T1 sequence (VL, as listed by the source limits assumed, chain 2 of 2): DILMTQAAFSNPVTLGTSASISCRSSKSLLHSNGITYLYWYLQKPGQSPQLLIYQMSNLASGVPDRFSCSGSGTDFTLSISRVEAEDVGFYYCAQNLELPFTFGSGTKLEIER
Chain of human IL-13 (P35225 35-146 limits assumed): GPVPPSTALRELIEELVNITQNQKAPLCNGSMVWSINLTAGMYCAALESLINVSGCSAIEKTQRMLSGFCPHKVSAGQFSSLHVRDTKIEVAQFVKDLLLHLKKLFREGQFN

B1
fold difference in affinity (CDR-graft against Chimera, IC50/IC50) (CDR-grafted 1D9 Fab [1]): ~1.5 fold | IC50 (CDR-grafted 1D9 Fab [2]): 0.127 µg/mL | IC50 (CDR-grafted 1D9 Fab [3]): 9.61 nM | IC50 [4]: 0.045 µg/mL | IC50 [5]: 6.66 nM | fold difference in affinity (CDR-graft against Chimera, IC50/IC50) (CDR-grafted 1D9 Fab [6]): ~3 fold

B2
binding result (soluble hIL-13Rα1 (ECD)): binds | binding result [7]: binds

B3
Kd [8]: 0.536 nM | Kd [9]: 15.1 nM

B4
fold greater affinity compared with the chimeric human receptor (mouse IL-13): ~10 fold | fold greater affinity compared with the chimeric human receptor (human IL-13): ~10 fold

B5
fold increase in affinity compared with the monomeric form of the receptor [10]: 100 fold
